Laboratory results as given in US20220380739.

T1: Abz-VDVADAA-Dap (Dnp)
T1 chain: VDVADAA

T2: Abz-VDVADDA-Dap (Dnp)
T2 chain: VDVADDA

T3: Abz-VDVADEA-Dap (Dnp)
T3 chain: VDVADEA

T4: Abz-VDVADFA-Dap (Dnp)
T4 chain: VDVADFA

T5: Abz-VDVADGA-Dap (Dnp)
T5 chain: VDVADGA

T6: Abz-VDVADHA-Dap (Dnp)
T6 chain: VDVADHA

T7: Abz-VDVADIA-Dap (Dnp)
T7 chain: VDVADIA

T8: Abz-VDVADKA-Dap (Dnp)
T8 chain: VDVADKA

T9: Abz-VDVADLA-Dap (Dnp)
T9 chain: VDVADLA

T10: Abz-VDVADMA-Dap (Dnp)
T10 chain: VDVADMA

T11: Abz-VDVADNA-Dap (Dnp)
T11 chain: VDVADNA

T12: Abz-VDVADPA-Dap (Dnp)
T12 chain: VDVADPA

T13: Abz-VDVADQA-Dap (Dnp)
T13 chain: VDVADQA

T14: Abz-VDVADRA-Dap (Dnp)
T14 chain: VDVADRA

T15: Abz-VDVADSA-Dap (Dnp)
T15 chain: VDVADSA

T16: Abz-VDVADTA-Dap (Dnp)
T16 chain: VDVADTA

T17: Abz-VDVADVA-Dap (Dnp)
T17 chain: VDVADVA

T18: Abz-VDVADWA-Dap (Dnp)
T18 chain: VDVADWA

T19: Abz-VDVADYA-Dap (Dnp)
T19 chain: VDVADYA

T20: Abz-VDVADCA-Dap (Dnp)
T20 chain: VDVADCA


What was measured:
[1] = biological target: DEVD-E2
[2] = biological target: 6H-GSG-VDVAD-TNFalpha
Chain of 6H-GSG-VDVAD-TNFalpha (chain, as listed by the source): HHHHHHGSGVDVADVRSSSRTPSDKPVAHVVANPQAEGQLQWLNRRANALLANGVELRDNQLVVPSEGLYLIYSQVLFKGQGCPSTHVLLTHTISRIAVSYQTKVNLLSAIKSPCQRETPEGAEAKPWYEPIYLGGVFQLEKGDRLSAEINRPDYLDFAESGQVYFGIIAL

[3] = biological target: T1, Abz-VDVADAA-Dap (Dnp)
[4] = biological target: T2, Abz-VDVADDA-Dap (Dnp)
[5] = biological target: T3, Abz-VDVADEA-Dap (Dnp)
[6] = biological target: T4, Abz-VDVADFA-Dap (Dnp)
[7] = biological target: T5, Abz-VDVADGA-Dap (Dnp)
[8] = biological target: T6, Abz-VDVADHA-Dap (Dnp)
[9] = biological target: T7, Abz-VDVADIA-Dap (Dnp)
[10] = biological target: T8, Abz-VDVADKA-Dap (Dnp)
[11] = biological target: T9, Abz-VDVADLA-Dap (Dnp)
[12] = biological target: T10, Abz-VDVADMA-Dap (Dnp)
[13] = biological target: T11, Abz-VDVADNA-Dap (Dnp)
[14] = biological target: T12, Abz-VDVADPA-Dap (Dnp)
[15] = biological target: T13, Abz-VDVADQA-Dap (Dnp)
[16] = biological target: T14, Abz-VDVADRA-Dap (Dnp)
[17] = biological target: T15, Abz-VDVADSA-Dap (Dnp)
[18] = biological target: T16, Abz-VDVADTA-Dap (Dnp)
[19] = biological target: T17, Abz-VDVADVA-Dap (Dnp)
[20] = biological target: T18, Abz-VDVADWA-Dap (Dnp)
[21] = biological target: T19, Abz-VDVADYA-Dap (Dnp)
[22] = biological target: T7AC-6H-GSG-VDVAD-hFGF-2
[23] = biological target: T20, Abz-VDVADCA-Dap (Dnp)

Protein | KM [3] | KM [4] | KM [5] | KM [6] | KM [7] | KM [8] | KM [9] | KM [10] | KM [11] | KM [12] | KM [13] | KM [14] | KM [15] | KM [16] | KM [17] | KM [18] | KM [19] | KM [20] | KM [21] | KM [22] | further results
Caspase-2 (human), recombinant, active, Enzo Life Sciences (protein) GPVCLQVKPCTPEFYQTHFQLAYRLQSRPRGLALVLSNVHFTGEKELEFRSGGDVDHSTLVTLFKLLGYDVHVLCDQTAQEMQEKLQNFAQLPAHRVTDSCIVALLSHGVEGAIYGVDGKLLQLQEVFQLFDNANCPSLQNKPKMFFIQACRGDETDRGVDQQDGKNHAGSPGCEESDAGKEKLPKMRLPTRSDMICGYACLKGTAAMRNTKRGSWYIEALAQVFSERACDMHVADMLVKVNALIKDREGYAPGTEFHRCKEMSEYCSTLCRHLYLFPGHPPT |  |  |  |  |  |  |  |  |  |  |  |  |  |  |  |  |  |  |  |  | cleavage of DEVD-E2 compared with VDVAD-E2 [1]: cleaved DEVD-E2 only 44 times slower than VDVAD-E2
T7AC_6H_mS9ProE (protein) MLEDPERNKERKEAELQAQTAEQHHHHHHGKNHAGSPGCEESAAGKEKLPKMRLPTRSDMICGYACLKGTAAMRNTKRGSWYIEALAQVFSERACDMHVADMLVKVNALIKDREGYAPGTEFHRCKVMSEYCSTLCRHLYLFPGHPPTGSGPVCLQVKPCTPEFYQTHFQLAYRLQSRPRGLALVLSNVHFTDEKELEFRSGGDVDHSTLVTLFKLLGYDVHVLCDQTAQEMQEKLQNFAQLPAHRGTDSCIVALLSHGVEGAIYGVDGKLLQLQEVFQLFDNANCPSLQNKPKMFFIQACRGEETERGVDQQD | 110 µM | 150 µM | 110 µM | 80 µM | 43 µM | 160 µM | 130 µM | 92 µM | 410 µM | 370 µM | 120 µM | 120 µM | 120 µM | 68 µM | 120 µM | 100 µM | 90 µM | 56 µM | 420 µM | 298 µM | KM [2]: 520 µM
T7AC_6H_cpCasp2D (protein) MLEDPERNKERKEAELQAQTAEQHHHHHHGKNHAGSPGCEESAAGKEKLPKMRLPTRSDMICGYACLKGTAAMRNTKRGSWYIEALAQVFSERACDMHVADMLVKVNALIKDREGYAPGTEFHRCKEMSEYCSTLCRHLYLFPGHPPTGSGPVCLQVKPCTPEFYQTHFQLAYRLQSRPRGLALVLSNVHFTGEKELEFRSGGDVDHSTLVTLFKLLGYDVHVLCDQTAQEMQEKLQNFAQLPAHRVTDSCIVALLSHGVEGAIYGVDGKLLQLQEVFQLFDNANCPSLQNKPKMFFIQACRGDETDRGVDQQD | 120 µM | 180 µM | 200 µM |  |  | 110 µM | 62 µM | 110 µM | 160 µM | 340 µM | 87 µM | 150 µM |  | 56 µM | 130 µM | 89 µM |  | 36 µM | 300 µM | 881 µM | KM [2]: 280 µM
T7AC-6H-cpCasp2_sar (protein) MLEDPERNKERKEAELQAQTAEQHHHHHHGKEHMASPGCEQSAAGKEKILKMRLPTRSDMICGYACLKGTAAMRNTKRGSWYIEALTQVFSERARDMHVADMLVKVNALIKDREGYAPGTEFHRCKEMSEYSSTLCRHLYLFPGHPPTGSGPPSLQVKPCTSEFYRTHHHLAYRLQSRPRGLALVLSNVHFNGEKDLEFRSGGDVDHSSLVTLFKLLDYDVHVLRDQTAQEMYEKLQRFAQLSTHQNTDSCVVALLSHGIEGGIYGVDGQLLQLQEVFQLFDNANCPNLQNKPKMFFIQACRGDETDRGVDLRD |  |  |  | 44 µM | 48 µM |  |  |  |  |  |  |  | 94 µM |  |  |  | 34 µM |  |  |  | 
T7AC-6H-cpCasp2_sar_E105V, E172V (protein) MLEDPERNKERKEAELQAQTAEQHHHHHHGKEHMASPGCEQSAAGKEKILKMRLPTRSDMICGYACLKGTAAMRNTKRGSWYIEALTQVFSERARDMHVADMLVKVNALIKDREGYAPGTEFHRCKVMSEYSSTLCRHLYLFPGHPPTGSGPPSLQVKPCTSEFYRTHHHLAYRLQSRPRGLALVLSNVHFNGVKDLEFRSGGDVDHSSLVTLFKLLDYDVHVLRDQTAQEMYEKLQRFAQLSTHQNTDSCVVALLSHGIEGGIYGVDGQLLQLQEVFQLFDNANCPNLQNKPKMFFIQACRGDETDRGVDLRD |  |  |  | 52 µM | 31 µM |  |  |  |  |  |  |  | 120 µM |  |  |  | 69 µM |  |  |  | 
6H_cpCasp2_S9_E105V (protein) MHHHHHHGKNHAGSPGCEESAAGKEKLPKMRLPTRSDMICGYACLKGTAAMRNTKRGSWYIEALAQVFSERACDMHVADMLVKVNALIKDREGYAPGTEFHRCKVMSEYCSTLCRHLYLFPGHPPTGSGPVCLQVKPCTPEFYQTHFQLAYRLQSRPRGLALVLSNVHFTGEKELEFRSGGDVDHSTLVTLFKLLGYDVHVLCDQTAQEMQEKLQNFAQLPAHRVTDSCIVALLSHGVEGAIYGVDGKLLQLQEVFQLFDNANCPSLQNKPKMFFIQACRGDETDRGVDQQD | 110 µM | 200 µM | 180 µM | 77 µM | 57 µM | 160 µM | 70 µM | 97 µM | 300 µM | 830 µM | 100 µM | 250 µM | 130 µM | 48 µM | 200 µM | 150 µM | 81 µM | 51 µM | 340 µM |  | 
6H_cpCasp2_G171D (protein) MHHHHHHGKNHAGSPGCEESAAGKEKLPKMRLPTRSDMICGYACLKGTAAMRNTKRGSWYIEALAQVFSERACDMHVADMLVKVNALIKDREGYAPGTEFHRCKEMSEYCSTLCRHLYLFPGHPPTGSGPVCLQVKPCTPEFYQTHFQLAYRLQSRPRGLALVLSNVHFTDEKELEFRSGGDVDHSTLVTLFKLLGYDVHVLCDQTAQEMQEKLQNFAQLPAHRVTDSCIVALLSHGVEGAIYGVDGKLLQLQEVFQLFDNANCPSLQNKPKMFFIQACRGDETDRGVDQQD | 120 µM | 150 µM | 210 µM | 86 µM | 75 µM | 170 µM | 78 µM | 94 µM | 300 µM | 610 µM | 110 µM | 390 µM | 160 µM | 65 µM | 220 µM | 140 µM | 96 µM | 56 µM | 350 µM |  | 
cp caspase-2 (6H_cpCasp2D) (protein) MHHHHHHGKNHAGSPGCEESAAGKEKLPKMRLPTRSDMICGYACLKGTAAMRNTKRGSWYIEALAQVFSERACDMHVADMLVKVNALIKDREGYAPGTEFHRCKEMSEYCSTLCRHLYLFPGHPPTGSGPVCLQVKPCTPEFYQTHFQLAYRLQSRPRGLALVLSNVHFTGEKELEFRSGGDVDHSTLVTLFKLLGYDVHVLCDQTAQEMQEKLQNFAQLPAHRVTDSCIVALLSHGVEGAIYGVDGKLLQLQEVFQLFDNANCPSLQNKPKMFFIQACRGDETDRGVDQQD | 89 µM | 160 µM | 170 µM | 60 µM | 110 µM | 120 µM | 71 µM | 120 µM | 290 µM | 380 µM | 78 µM | 300 µM | 120 µM | 58 µM | 200 µM | 75 µM | 64 µM | 46 µM | 340 µM | 639 µM | KM [23]: 38 µM; cleavage of DEVD-E2 compared with VDVAD-E2 [1]: processed 140 times slower than VDVAD-E2
wt caspase-2 (human, produced in E. coli with poly-his-tag) (protein) GPVCLQVKPCTPEFYQTHFQLAYRLQSRPRGLALVLSNVHFTGEKELEFRSGGDVDHSTLVTLFKLLGYDVHVLCDQTAQEMQEKLQNFAQLPAHRVTDSCIVALLSHGVEGAIYGVDGKLLQLQEVFQLFDNANCPSLQNKPKMFFIQACRGDETDRGVDQQDGKNHAGSPGCEESDAGKEKLPKMRLPTRSDMICGYACLKGTAAMRNTKRGSWYIEALAQVFSERACDMHVADMLVKVNALIKDREGYAPGTEFHRCKEMSEYCSTLCRHLYLFPGHPPTHHHHHH |  |  |  | 79 µM | 97 µM |  |  |  |  |  |  |  | 110 µM |  |  |  | 86 µM |  |  |  | 
